The text below walks through data of patent publication US20080081035.

The target in data set [1] is T1, D-val-leu-lys-pNA.
T1 chain: VLK

The target of data set [2] is Protamine sulfate from salmon.
Data set [3] concerns the target T2, human recombinant IFN-γ, P01579.
T2 chain: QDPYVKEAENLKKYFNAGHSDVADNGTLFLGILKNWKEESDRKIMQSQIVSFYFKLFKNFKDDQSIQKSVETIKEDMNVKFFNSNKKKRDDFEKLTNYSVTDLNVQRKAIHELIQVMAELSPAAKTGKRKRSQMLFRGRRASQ

In data set [4] the target is human recombinant TNF-α, P01375.
The target of data set [5] is T3, mouse recombinant IFN-γ, P01580.
T3 chain: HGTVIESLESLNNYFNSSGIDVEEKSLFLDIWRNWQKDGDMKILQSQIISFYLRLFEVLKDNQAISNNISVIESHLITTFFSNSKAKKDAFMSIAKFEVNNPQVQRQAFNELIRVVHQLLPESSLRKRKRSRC

In data set [6] the target is T4, mouse recombinant TNF-α, P06804.
T4 chain: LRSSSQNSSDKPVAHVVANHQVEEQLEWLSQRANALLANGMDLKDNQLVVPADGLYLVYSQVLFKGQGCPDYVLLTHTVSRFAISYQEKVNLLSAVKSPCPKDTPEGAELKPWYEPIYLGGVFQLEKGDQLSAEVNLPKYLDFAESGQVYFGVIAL

Chain of human recombinant TNF-α, P01375 (P01375 77-233): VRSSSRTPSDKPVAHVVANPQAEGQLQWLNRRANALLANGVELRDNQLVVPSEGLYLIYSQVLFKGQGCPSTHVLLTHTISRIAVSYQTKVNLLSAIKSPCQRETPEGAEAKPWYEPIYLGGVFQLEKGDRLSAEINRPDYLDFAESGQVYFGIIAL

B1: Aspergillus oryzae 26 kDa protease (protein)
chain: HASADAWASSKAISSTSSPSSFKMRFISVSSLLLALAPALNAVPVEVAGSAQGLDVTLSQVGNTRIKAWKNTGSEDVTFVHLNFFKDAAPVQKVSLFRNATEVQFQGIKQRLITEGLSDDALTTLAPGATIEDEFDIASTSDLSEGGTITINSNGLVPITTDNKVTGYIPFTSNELSIDVDAAEAASVTQAVKILERRTKVTSCSGSRLSALQTALRNTVSLARAAATAAQSGSSSRFQEYFKTTSSSTRSTVAARLNAVANEAASTSSGSTTYYCSDVYGYCSSNVLAYTLPSYNIIANCDLYYSYLPALTSTCHAQDQATTTLHEFTHAPGVYSPGTDDLGYGYSAATALSASQALLNADTYALFANAVNLNC
As to B1, in data set [1], the Specific activity: Val-leu-lys-pNA (mOD/min/µg protein) (mOD/min/µg protein) was found to be 2.1. The same protein showed a Specific activity: Salmon protamine (nmoles Leucine/30 min./µg protein) (nmoles Leucine/30 min./µg protein) in data set [2] of 679. For the same protein, the “cleavage by Western blot” value in data set [3] is reported as “cleave human IFN-γ”.

B2: Aspergillus oryzae alkaline protease (protein)
chain: GLTTQKSAPWGLGSISHKGQQSTDYIYDTSAGEGTYAYVVDSGVNVDHEEFEGRASKAYNAAGGQHVDSIGHGTHVSGTIAGKTYGIAKKASILSVKVFQGESSSTSVILDGFNWAANDIVSKKRTSKAAINMSLGGGYSKAFNDAVENAFEQGVLSVVAAGNENSDAGQTSPASAPDAITVAAIQKSNNRASFSNFGKVVDVFAPGQDILSAWIGSSSATNTISGTSMATPHIVGLSLYLAALENLDGPAAVTKRIKELATKDWKDVKGSPNLLAYNGNA
For B2, the Specific activity: Val-leu-lys-pNA (mOD/min/µg protein) (mOD/min/µg protein) in data set [1] worked out at 117. The same protein yielded a Specific activity: Salmon protamine (nmoles Leucine/30 min./µg protein) (nmoles Leucine/30 min./µg protein) in data set [2] of 951. The “cleavage by Western blot” value in data set [3] is “the protease did not cleave human IFN-γ”. Also, in data set [4], the “proteolysis by Western blotting” value was “produced a similar pattern of cleavage”. In addition, the “cleavage by Western blotting” value in data set [5] and in data set [6] was “evidenced the same substrate specificity” throughout.

B3: Aspergillus oryzae Deuterolysin (Neutral Protease II) (protein)
chain: TEVTDCKGDAESSLTTALSNAAKLANQAAEAAESGDESKFEEYFKTTDQQTRTTVAERLRAVAKEAGSTSGGSTTYHCNDPYGYCEPNVLAYTLPSKNEIANCDIYYSELPPLAQKCHAQDQATTTLHEFTHAPGVYQPGTEDLGYGYDAATQLSAQDALNNADSYALYANAIELKC
Regarding B3, the Specific activity: Val-leu-lys-pNA (mOD/min/µg protein) (mOD/min/µg protein) in data set [1] came out at 2.3. The protein further displayed a Specific activity: Salmon protamine (nmoles Leucine/30 min./µg protein) (nmoles Leucine/30 min./µg protein) in data set [2] of 677. In addition, the “cleavage by Western blot” value in data set [3] is “cleave human IFN-γ”. Also, in data set [4], the “proteolysis by Western blotting” value was “deuterolysin was without significant effect”.
